# Measured values as given in patent US20190071490A1, “Preventing Post-Ictal Headaches” (Beth Israel Deaconess Medical Center, Inc., priority 2017, published 2019).
# B1: G1: humanized monoclonal anti-CGRP antagonist antibody; heavy chain SEQ ID NO:11, light chain SEQ ID NO:12 (antibody)
# heavy: EVQLVESGGGLVQPGGSLRLSCAASGFTFSNYWISWVRQAPGKGLEWVAEIRSESDASATHYAEAVKGRFTISRDNAKNSLYLQMNSLRAEDTAVYYCLAYFDYGLAIQNYWGQGTLVTVSSASTKGPSVFPLAPCSRSTSESTAALGCLVKDYFPEPVTVSWNSGALTSGVHTFPAVLQSSGLYSLSSVVTVPSSNFGTQTYTCNVDHKPSNTKVDKTVERKCCVECPPCPAPPVAGPSVFLFPPKPKDTLMISRTPEVTCVVVDVSHEDPEVQFNWYVDGVEVHNAKTKPREEQFNSTFRVVSVLTVVHQDWLNGKEYKCKVSNKGLPSSIEKTISKTKGQPREPQVYTLPPSREEMTKNQVSLTCLVKGFYPSDIAVEWESNGQPENNYKTTPPMLDSDGSFFLYSKLTVDKSRWQQGNVFSCSVMHEALHNHYTQKSLSLSPGK
# light: EIVLTQSPATLSLSPGERATLSCKASKRVTTYVSWYQQKPGQAPRLLIYGASNRYLGIPARFSGSGSGTDFTLTISSLEPEDFAVYYCSQSYNYPYTFGQGTKLEIKRTVAAPSVFIFPPSDEQLKSGTASVVCLLNNFYPREAKVQWKVDNALQSGNSQESVTEQDSKDSTYSLSSTLTLSKADYEKHKVYACEVTHQGLSSPVTKSFNRGEC
# Tests used:
# [1] = test system: first-order trigeminovascular neurons (A-delta and C-type meningeal nociceptors); experiment: Single-unit recording of first-order neurons in the trigeminal ganglion evoked by CSD; format: in vivo, rat; conditions: male rats
# Description: CSD was induced by pinprick 4 hours after drug/isotype infusion.
# [2] = test system: central trigeminovascular neurons (medullary dorsal horn); experiment: Seizure (picrotoxin)-induced activation of trigeminovascular neurons, single-unit recording; format: in vivo; conditions: rat
# Source text: Cortical electrodes were used to trace the magnitude, extent and progression of epileptiform seizures.
# Single-unit recordings were obtained from neurons in the trigeminal ganglion and dorsal horn as described in previous studies (Burstein et al. (1998) J. Neurophysiol. 79: 964-82; Strassman and Levy (2006) J. Neurophysiol. 95: 1298-306; Strassman et al. (1996) Nature 384: 560-4; Zhang et al. (2010) J. Neurosci. 30: 8807-14; and Zhang et al. (2011) Ann. Neurol. 69: 855-65). Experiments were done in adult Sprague-Dawley rats (250 g to 350 g). Animals were anesthetized with urethane (1.2-1.5 g/kg), artificially ventilated with oxygen, and paralyzed. Body temperature was controlled, and end-tidal CO2 and oxygen saturation was monitored. For ganglion recordings, four separate craniotomies were made: over the contralateral cortex, to advance the microelectrode; over the ipsilateral parietal cortex, and the ipsilateral occipital cortex, for application of the picrotoxin and recording of electrocorticogram activity; and over the ipsilateral transverse sinus, for electrical and mechanical stimulation of dural afferents, and lidocaine application. For dorsal horn recording, the same craniotomies were made over the ipsilateral cortex and the ipsilateral transverse sinus, but no contralateral craniotomy was made. Instead, a laminectomy was made to expose the upper cervical spinal cord (C1-2) for microelectrode recording. In both the trigeminal ganglion and the dorsal horn recording experiments, the search stimulus for finding dura-sensitive neurons is single-shock electrical stimulation applied to the dura covering the transverse sinus.
# Seizure was induced by application of picrotoxin to the surface of the cerebral cortex (10 μl, applied on a small piece of gelfoam, at a concentration of either 5 mM or 100 mM, for focal or generalized seizure, respectively). For verification of seizure induction, cortical activity was recorded with a glass micropipette (0.9% saline, ˜1 megohm, 7 μm tip) placed just below the surface of the cerebral cortex, at the parietal and the occipital site. […]
# [3] = test system: naïve central trigeminovascular neurons (HT, WDR) in the spinal trigeminal nucleus; experiment: Single-unit recording of spontaneous and evoked activity of naïve trigeminovascular neurons; format: in vivo, rat; conditions: 30 mg/kg i.v.; for effect on spontaneous activity of naïve HT and WDR neurons: 1-4 hours post-treatment vs baseline
# Source text: Experiments were approved by the Beth Israel Deaconess Medical Center and Harvard Medical School standing committees on animal care, and in accordance with the U.S. National Institutes of Health Guide for the Care and Use of Laboratory Animals. Male and female Sprague-Dawley rats (250-350 g) were anesthetized with urethane (0.9-1.2 g/kg i.p.). They were fitted with an intra-tracheal tube to allow artificial ventilation (0.1 L/min of O2), and an intra-femoral-vein cannula for later infusion of drugs. Rats were placed in a stereotaxic apparatus, and core temperature was kept at 37° C. using a heating blanket. End-tidal CO2 was continuously monitored and kept within physiological range (3.5-4.5 pCO2). Once stabilized, rats were paralyzed with rocuronium bromide (10 mg/ml, 1 ml/hr continuous intravenous infusion) and ventilated. For stimulation of the cranial dura later in the experiment, a 5×5-mm opening was carefully carved in the parietal and occipital bones in front and behind the lambda suture, directly above the left transverse sinus. The exposed dura was kept moist using a modified synthetic interstitial fluid (135 mM NaCl, 5 mM KCl, 1 mM MgCl2, 5 mM CaCl2), 10 mM glucose and 10 mM Hepes, pH 7.2). For single-unit recording in the spinal trigeminal nucleus, a segment of the spinal cord between the obex and C2 was uncovered from overlying tissues, stripped of the dura mater, and kept moist with mineral oil.
# To record neuronal activity, a tungsten microelectrode (impedance 3-4 MΩ) was lowered repeatedly into the spinal trigeminal nucleus (STN) in search of central trigeminovascular neurons receiving convergent input from the dura and facial skin. Trigeminovascular neurons were first identified based on their responses to electrical stimulation of the dura. […] Dural receptive fields were mapped by indenting the dura (with the 4.19 g VFH monofilament) at points separated by 1 mm mediolaterally and rostrocaudally. Points at which dural indentation produced a response in ≥50% of the trials were considered inside the neurons receptive field. Cutaneous receptive fields were mapped by applying innocuous and noxious mechanical stimulation to all facial skin areas and the cornea. An area was considered outside the receptive field if no stimulus produced a response in ≥50% of the trials. Responses to mechanical stimulation of the skin were determined by applying brief (10 s) innocuous and noxious stimuli to the most sensitive portion of the cutaneous receptive field. Innocuous stimuli consisted of slowly passing a soft bristled brush across the cutaneous receptive field (one 5-s brush stroke from caudal to rostral and one 5-s brush stroke from rostral to caudal) and pressure applied with a loose arterial clip. Noxious stimuli consisted of pinch with a strong arterial clip (Palecek et al., 1992, J. Neurophysiol. 67:1562-1573; Dado et al., 1994, J. Neurophysiol. 71:981-1002; Burstein et al., 1998, J. Neurophysiol. 79:964-982). More intense or prolonged stimuli were not used to avoid inducing prolonged changes in spontaneous neuronal discharge or response properties. Responses to mechanical stimulation of the cornea consisted of gentle and slow brushing strokes with a thin paintbrush (about 10 hair-follicles). Two classes of neurons were thus identified: wide-dynamic-range (WDR) neurons (incrementally responsive to brush, pressure and pinch), and high-threshold (HT) neurons (unresponsive to brush). Real-time waveform discriminator was used to create and store a template for the action potential evoked in the neuron under study by electrical pulses on the dura; spikes of activity matching the template waveform were acquired and analyzed online and offline using Spike 2 software (CED, Cambridge, UK).
# It was diluted in saline to a final dose of 30 mg/kg and administered intravenously (bolus injection, total volume 0.6-0.7 ml). […]
molecule,measurement,setting,value
B1,activation of meningeal nociceptors by CSD (FIGS. 23A and 23B),[1],prevents the activation of most a-delta and some C-type meningeal nociceptors
same,C-fibers activated by CSD,[1]; 30 mg/kg IV 4 hours before CSD,23%
same,a-delta fibers activated by CSD,[1]; 30 mg/kg IV 4 hours before CSD,14%
same,neurons tested that were activated by CSD,"[1]; 30 mg/kg IV 4 hours before CSD, all first-order neurons",20%
same,neurons activated by the seizure (number/total),"[2]; 30 mg/kg i.v. four hours before induction of seizure, medullary dorsal horn, untreated 28/30",2/13
same,neurons activated by the seizure (percent),"[2]; 30 mg/kg i.v. four hours before induction of seizure, medullary dorsal horn, untreated 93%",15%
same,activation of central trigeminovascular neuron by seizure (FIG. 9),[2]; 30 mg/kg intravenously four hours before induction of seizure,prevented the activation of a central trigeminovascular neuron but not the occurrence of a seizure
same,effect on spontaneous activity of naïve HT and WDR neurons,[3]; female rats,did not reduce the spontaneous activity of HT or WDR neurons
same,decrease of firing of HT neurons in response to dural indentation,"[3]; female rats, p=0.017",61%
same,"effect on sensitivity to mechanical stimulation of the dura (dural indentation), HT and WDR neurons",[3]; male and female rats,reduced the sensitivity to mechanical stimulation of the dura in the HT but not the WDR neurons
same,"effect on responses to innocuous (brush, pressure) or noxious (pinch) mechanical stimulation of the skin or the cornea","[3]; male or female rats, HT or WDR neurons",did not alter the responses of HT or WDR neurons
same,effect on spontaneous activity of naïve HT and WDR neurons,[3]; male rats,reduced the spontaneous activity of the HT but not the WDR neurons
same,decrease of firing of HT neurons in response to dural indentation,"[3]; male rats, p=0.047",75%
same,"decrease of spontaneous neuronal firing, HT neurons","[3]; male rats, within 3-4 hrs, p=0.040",90%
